Laboratory results as given in US20090042250.

Tests used:
Assay in all cases: cell_activity
[1] = tested on: ZFN 12176 (synthetic construct); details: pair 12172/12176 (3.0 with 12170), CHO K-1, Cel-1 assay 2 days post-transfection
[2] = tested on: ZFN 12030 (synthetic construct); details: pair 12029/12030, CHO K-1, Cel-1 assay 2 days post-transfection
[3] = tested on: ZFN 12170 (synthetic construct); details: pair 12170/12176, CHO K-1, Cel-1 assay 2 days post-transfection
[4] = tested on: ZFN 12172 (synthetic construct); details: pair 12172/12176, CHO K-1, Cel-1 assay 2 days post-transfection
[5] = tested on: ZFN 12029 (synthetic construct); details: pair 12029/12030, CHO K-1, Cel-1 assay 2 days post-transfection

Sequence: AAGAAGGGTCATCAG (double strand) [FUT8 exon 10 12176 half-site]
- activity (% chromosomes modified) [1]: 4.4

Sequence: AAGGACACACTG (double strand) [FUT8 12030 half-site]
- activity (% chromosomes modified) [2]: 3.3

Sequence: AAGGAGGCAAAGACAAAG (double strand) [FUT8 exon 10 12170/12172 half-site]
- activity (% chromosomes modified) [3]: 3
- activity (% chromosomes modified) [4]: 4.4

Sequence: GTCTCGGATGCT (double strand) [FUT8 12029 half-site]
- activity (% chromosomes modified) [5]: 3.3
